Laboratory results taken from PMC3247260, “Domain Analysis Reveals That a Deubiquitinating Enzyme USP13 Performs Non-Activating Catalysis for Lys63-Linked Polyubiquitin” (PLoS ONE, 2011).

B1: USP13 (residues 21-863) (enzyme, human, UniProt Q92995 21-863, looked up)
chain: AGDIGELLVPHMPTIRVPRSGDRVYKNECAFSYDSPNSEGGLYVCMNTFLAFGREHVERHFRKTGQSVYMHLKRHVREKVRGASGGALPKRRNSKIFLDLDTDDDLNSDDYEYEDEAKLVIFPDHYEIALPNIEELPALVTIACDAVLSSKSPYRKQDPDTWENELPVSKYANNLTQLDNGVRIPPSGWKCARCDLRENLWLNLTDGSVLCGKWFFDSSGGNGHALEHYRDMGYPLAVKLGTITPDGADVYSFQEEEPVLDPHLAKHLAHFGIDMLHMHGTENGLQDNDIKLRVSEWEVIQESGTKLKPMYGPGYTGLKNLGNSCYLSSVMQAIFSIPEFQRAYVGNLPRIFDYSPLDPTQDFNTQMTKLGHGLLSGQYSKPPVKSELIEQVMKEEHKPQQNGISPRMFKAFVSKSHPEFSSNRQQDAQEFFLHLVNLVERNRIGSENPSDVFRFLVEERIQCCQTRKVRYTERVDYLMQLPVAMEAATNKDELIAYELTRREAEANRRPLPELVRAKIPFSACLQAFSEPENVDDFWSSALQAKSAGVKTSRFASFPEYLVVQIKKFTFGLDWVPKKFDVSIDMPDLLDINHLRARGLQPGEEELPDISPPIVIPDDSKDRLMNQLIDPSDIDESSVMQLAEMGFPLEACRKAVYFTGNMGAEVAFNWIIVHMEEPDFAEPLTMPGYGGAASAGASVFGASGLDNQPPEEIVAIITSMGFQRNQAIQALRATNNNLERALDWIFSHPEFEEDSDFVIEMENNANANIISEAKPEGPRVKDGSGTYELFAFISHMGTSTMSGHYICHIKKEGRWVIYNDHKVCASERPPKDLGYMYFYRRIPS
notes: Ubiquitin-specific protease 13 (USP13, isoT3), human, residues 21-863, cloned into pET-32M; The results call it full-length USP13; the methods give residues 21-863; also called full-length USP13; source: E. coli BL21, purified (Ni-NTA agarose, size-exclusion chromatography)
B2: tandem UBA domains of USP13 (USP13-UBA12, residues 652-776) (domain or fragment, human, UniProt Q92995 652-776, looked up)
chain: DIDESSVMQLAEMGFPLEACRKAVYFTGNMGAEVAFNWIIVHMEEPDFAEPLTMPGYGGAASAGASVFGASGLDNQPPEEIVAIITSMGFQRNQAIQALRATNNNLERALDWIFSHPEFEEDSDF
notes: USP13, human, tandem UBA domains (UBA1 and UBA2), residues 652-776, cloned into pET-32M; 15N-labelled in the NMR titrations; source: E. coli BL21, purified (Ni-NTA agarose, size-exclusion chromatography)
B3: USP5-ZnF R222W (domain or fragment, human, UniProt P45974 169-289, looked up)
chain: WDGEVRQVSKHAFSLKQLDNPARIPPCGWKCSKCDMRENLWLNLTDGSILCGRWYFDGSGGNNHAVEHYRETGYPLAVKLGTITPDGADVYSYDEDDMVLDPSLAEHLSHFGIDMLKMQKT
notes: USP5, human, ZnF domain, residues 169-289, point mutant in pET-M; source: E. coli BL21, purified (Ni-NTA agarose, size-exclusion chromatography)
B4: USP5-ZnF Y223F (domain or fragment, human, UniProt P45974 169-289, looked up)
chain: WDGEVRQVSKHAFSLKQLDNPARIPPCGWKCSKCDMRENLWLNLTDGSILCGRRFFDGSGGNNHAVEHYRETGYPLAVKLGTITPDGADVYSYDEDDMVLDPSLAEHLSHFGIDMLKMQKT
notes: as for B3
B5: ZnF domain of USP5 (USP5-ZnF, residues 169-289), wild type (domain or fragment, human, UniProt P45974 169-289, looked up)
chain: WDGEVRQVSKHAFSLKQLDNPARIPPCGWKCSKCDMRENLWLNLTDGSILCGRRYFDGSGGNNHAVEHYRETGYPLAVKLGTITPDGADVYSYDEDDMVLDPSLAEHLSHFGIDMLKMQKT
notes: USP5 (isopeptidase T, isoT), human, zinc finger (ZnF) domain, residues 169-289, cloned into pET-M; also called WT; source: E. coli BL21, purified (Ni-NTA agarose, size-exclusion chromatography)
B6: USP5-ZnF Y261F (domain or fragment, human, UniProt P45974 169-289, looked up)
chain: WDGEVRQVSKHAFSLKQLDNPARIPPCGWKCSKCDMRENLWLNLTDGSILCGRRYFDGSGGNNHAVEHYRETGYPLAVKLGTITPDGADVYSFDEDDMVLDPSLAEHLSHFGIDMLKMQKT
notes: as for B3
B7: USP5-ZnF R221K (domain or fragment, human, UniProt P45974 169-289, looked up)
chain: WDGEVRQVSKHAFSLKQLDNPARIPPCGWKCSKCDMRENLWLNLTDGSILCGKRYFDGSGGNNHAVEHYRETGYPLAVKLGTITPDGADVYSYDEDDMVLDPSLAEHLSHFGIDMLKMQKT
notes: as for B3
B8: USP5-ZnF R222W/Y223F (domain or fragment, human, UniProt P45974 169-289, looked up)
chain: WDGEVRQVSKHAFSLKQLDNPARIPPCGWKCSKCDMRENLWLNLTDGSILCGRWFFDGSGGNNHAVEHYRETGYPLAVKLGTITPDGADVYSYDEDDMVLDPSLAEHLSHFGIDMLKMQKT
notes: as for B3

Tests used:
Conditions in all cases: both partners purified
GST-fused Ub = molecular target: T1, GST-fused Ub (UniProt P0CG48 1-76); experiment: pull-down; GST-fused Ub, ISG15, SUMO1 or SUMO2 loaded on glutathione agarose, USP13 or USP13-UBA12 (~100 µM) added; 1-hr incubation, washed three times, eluted by GSH buffer; SDS-PAGE with Coomassie blue staining
T1 construct: ubiquitin (Ub); cDNA inserted into pGEX-4T-3; also called GST-Ub; source: E. coli BL21, purified (glutathione agarose)

ubiquitin (Ub) [1] = molecular target: T2, ubiquitin (Ub) (UniProt P0CG48 1-76); experiment: NMR titration; 15N-labeled USP13-UBA12 or USP5-ZnF (~0.2 mM) titrated with Ub (or ISG15), 1H-15N HSQC spectra; 20 mM phosphate, 50 mM NaCl, pH 6.5
T2 construct: ubiquitin, free monomer; only a GST-fused Ub construct is named in the methods; also called free Ub; monoUb

linear diUb = molecular target: T3, linear diUb (UniProt P0CG48 1-76; P0CG48 1-76); experiment: ITC; USP13-UBA12 (1.25 mM stock) injected into K63-, K48-, linear diUb (0.1 mM) or monoUb (0.2 mM), 25 injections of 1.5 µL; 50 mM Tris, 150 mM NaCl, pH 7.5; 25°C
T3 construct: ubiquitin, first unit of the linear (head-to-tail) dimer; ubiquitin, second unit of the linear (head-to-tail) dimer; also called linear linked diUb

ubiquitin (Ub) [2] = molecular target: T2, ubiquitin (Ub); experiment: ITC; Ub (1 mM stock) injected into USP13-ZnF, USP5-ZnF or its mutants (50 µM), 25 injections of 8 µL; 50 mM Tris, 150 mM NaCl, pH 7.5, 1 mM DTT; 25°C

Row | Binder | Kd (ubiquitin (Ub) [2]) | also measured
1 | B1 | – | binding result (GST-fused Ub): binds
2 | B2 | – | binding result (ubiquitin (Ub) [1]): binds; binding result (linear diUb): binds; binding result (GST-fused Ub): binds
3 | B3 | 9.1 µM | –
4 | B4 | 6.4 µM | –
5 | B5 | 2.3 µM | –
6 | B6 | 88 µM | –
7 | B7 | 100 µM | –
8 | B8 | 16 µM | –
